Experimental data as given in patent US20020019341A1 (Stanford University, published 2002).

Key:
[1] = molecular target: human CCR4 (human) (UniProt P51679); experiment: cell-based or functional assay
[2] = molecular target: T1, integrin α4β7 (human, UniProt P13612 34-1032; P26010 20-798); experiment: cell adhesion to MAdCAM-1 transfectants, elution with 0.5mM EDTA
T1 construct: whole, on cells; also called a4p7
T1 sequence (P13612 34-1032, chain 1 of 2): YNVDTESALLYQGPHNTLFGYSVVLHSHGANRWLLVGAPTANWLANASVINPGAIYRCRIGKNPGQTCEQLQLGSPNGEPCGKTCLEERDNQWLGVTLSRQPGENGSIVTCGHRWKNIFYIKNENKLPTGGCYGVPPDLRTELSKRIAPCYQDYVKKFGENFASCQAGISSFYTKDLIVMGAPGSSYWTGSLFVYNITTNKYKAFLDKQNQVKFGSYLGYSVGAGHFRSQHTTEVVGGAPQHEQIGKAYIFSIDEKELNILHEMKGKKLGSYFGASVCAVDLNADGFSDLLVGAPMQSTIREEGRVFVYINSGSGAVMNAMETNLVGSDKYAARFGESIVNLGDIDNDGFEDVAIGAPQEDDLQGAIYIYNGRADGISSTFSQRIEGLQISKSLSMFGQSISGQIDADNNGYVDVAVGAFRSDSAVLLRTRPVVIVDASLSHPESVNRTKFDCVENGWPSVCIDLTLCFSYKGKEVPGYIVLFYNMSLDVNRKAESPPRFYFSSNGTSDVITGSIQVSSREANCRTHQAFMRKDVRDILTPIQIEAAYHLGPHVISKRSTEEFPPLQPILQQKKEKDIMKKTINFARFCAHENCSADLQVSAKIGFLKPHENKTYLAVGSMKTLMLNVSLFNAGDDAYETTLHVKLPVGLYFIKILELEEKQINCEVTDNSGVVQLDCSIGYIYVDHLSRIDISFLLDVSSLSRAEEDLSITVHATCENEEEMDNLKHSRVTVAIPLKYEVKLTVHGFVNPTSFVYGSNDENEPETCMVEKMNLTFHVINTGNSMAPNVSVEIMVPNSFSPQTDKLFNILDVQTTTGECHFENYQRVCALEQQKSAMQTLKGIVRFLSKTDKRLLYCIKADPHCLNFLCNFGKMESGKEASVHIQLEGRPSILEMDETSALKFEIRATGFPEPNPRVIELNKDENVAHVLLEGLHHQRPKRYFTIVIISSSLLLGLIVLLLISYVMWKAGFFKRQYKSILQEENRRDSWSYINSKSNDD
T1 sequence (P26010 20-798, chain 2 of 2): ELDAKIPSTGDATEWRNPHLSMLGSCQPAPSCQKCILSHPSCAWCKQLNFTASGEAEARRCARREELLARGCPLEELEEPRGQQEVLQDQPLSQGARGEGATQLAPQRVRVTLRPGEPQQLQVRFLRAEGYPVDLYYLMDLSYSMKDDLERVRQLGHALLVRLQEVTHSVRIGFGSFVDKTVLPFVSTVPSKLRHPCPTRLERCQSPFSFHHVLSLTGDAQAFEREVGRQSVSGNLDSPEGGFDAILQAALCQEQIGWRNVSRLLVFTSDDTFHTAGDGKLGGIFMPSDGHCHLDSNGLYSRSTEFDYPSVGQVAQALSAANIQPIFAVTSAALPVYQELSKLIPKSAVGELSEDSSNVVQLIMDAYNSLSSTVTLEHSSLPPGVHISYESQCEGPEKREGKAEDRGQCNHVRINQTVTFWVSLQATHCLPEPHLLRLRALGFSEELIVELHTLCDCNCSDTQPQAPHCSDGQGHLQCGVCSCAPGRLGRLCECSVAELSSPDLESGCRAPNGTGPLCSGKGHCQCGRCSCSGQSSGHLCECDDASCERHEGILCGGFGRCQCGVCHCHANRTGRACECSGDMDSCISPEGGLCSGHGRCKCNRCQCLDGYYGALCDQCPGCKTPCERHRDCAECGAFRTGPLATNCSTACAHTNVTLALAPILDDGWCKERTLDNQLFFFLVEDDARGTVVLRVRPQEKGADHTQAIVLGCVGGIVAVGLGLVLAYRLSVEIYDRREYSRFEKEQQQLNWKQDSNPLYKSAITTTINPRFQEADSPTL

Sequence of human CCR4 (human) (P51679 whole entry): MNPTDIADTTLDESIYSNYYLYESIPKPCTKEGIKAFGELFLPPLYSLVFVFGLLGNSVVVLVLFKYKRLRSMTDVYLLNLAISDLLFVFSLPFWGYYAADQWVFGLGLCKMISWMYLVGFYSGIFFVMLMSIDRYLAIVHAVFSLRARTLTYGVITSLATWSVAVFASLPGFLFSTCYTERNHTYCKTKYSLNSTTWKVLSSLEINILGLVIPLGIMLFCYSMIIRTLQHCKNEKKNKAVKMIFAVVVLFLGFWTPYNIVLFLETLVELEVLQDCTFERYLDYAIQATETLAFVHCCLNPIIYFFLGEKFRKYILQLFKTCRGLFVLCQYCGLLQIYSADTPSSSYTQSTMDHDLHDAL

rapid adhesion of α4β7(-) memory CD4+ lymphocytes to immobilized ICAM-1 (static assay, TARC at 1 µM) (% of input cells) [1] | binding result [2] | Molecule
< 50 | – | human TARC (thymus and activation-regulated chemokine) (from UniProt Q92583 24-94) (ligand)
– | binds | murine MAdCAM-1 (receptor, UniProt Q61826 22-405, looked up, whole, on cells; CHO cells transfected with murine MAdCAM-1; also called mucosal addressin cell adhesion molecule) QSFQVNPPESEVAVAMGTSLQITCSMSCDEGVARVHWRGLDTSLGSVQTLPGSSILSVRGMLSDTGTPVCVGSCGSRSFQHSVKILVYAFPDQLVVSPEFLVPGQDQVVSCTAHNIWPADPNSLSFALLLGEQRLEGAQALEPEQEEEIQEAEGTPLFRMTQRWRLPSLGTPAPPALHCQVTMQLPKLVLTHRKEIPVLQSQTSPKPPNTTSAEPYILTSSSTAEAVSTGLNITTLPSAPPYPKLSPRTLSSEGPCRPKIHQDLEAGWELLCEASCGPGVTVRWTLAPGDLATYHKREAGAQAWLSVLPPGPMVEGWFQCRQDPGGEVTNLYVPGQVTPNSSSTVVLWIGSLVLGLLALVFLAYRLWKCYRPGPRPDTSSCTHL
